For orientation: stoichiometry N means a count of units in the complex or per binding partner.

The target in the test is mono-ubiquitinated human FANCD2 (ubiquitin on Lysine 561) (human) (UniProt Q9BXW9). In words: biotin affinity purification with 3C protease elution; in vitro ubiquitination reaction with Avi-ubiquitin loaded on avidin agarose, 2 hrs 4 °C, washed with 10 CV 50 mM Tris-HCl pH 7.4, 150 mM NaCl, 10% glycerol, 1 mM DTT; eluted overnight with 100 nM GST-HRV-3C; Coomassie gel.

As to “mono-ubiquitinated human FANCI (ubiquitin on Lysine 523) (from UniProt Q9NVI1 1-1328; P0CG47 1-76) (natural protein)”, the stoichiometry N worked out at 1.

Source of the values: PMC7039436.
